Results as given in paper PMC6684588.

Assays:
activin A [1] = target: activin A (UniProt P08476)
activin B [2] = target: activin B (UniProt P09529)
[3] = target: growth differentiation factor 11 (GDF11) (UniProt O95390)
myostatin (GDF8) [4] = target: myostatin (GDF8) (UniProt O14793)
activin A [5] = target: activin A (UniProt P08476); remark: listed apart in the source
activin B [6] = target: activin B (UniProt P09529); remark: listed apart in the source
[7] = target: growth differentiation factor 11 (GDF11) (UniProt O95390); remark: listed apart in the source
myostatin (GDF8) [8] = target: myostatin (GDF8) (UniProt O14793); remark: listed apart in the source
ACE-083 (human) = assay: SPR; detailed kinetics: ACE-083 captured on immobilized goat anti-human Fc-specific antibody; two-fold series of BMP6 (0.156 nM-5 nM) and BMP7 (0.078 nM-5 nM) injected in duplicate, association 210 sec, dissociation 600 sec, 100 μl/min; global fit to 1:1 model with mass transport term (BIAevaluation); means of two flow cells
[9] = target: ACE-083 (FST291-Fc fusion protein) (human); assay: SPR; Biacore T100, capture format at 37 °C; ACE-083 captured on an anti-human IgG Fc sensor chip, ligands injected as analytes in a concentration series in duplicate; association 210 sec, dissociation 600 sec (1200 sec for activin A and GDF11); global fit to a 1:1 binding model with mass transfer term; apparent KD

Chain of myostatin (GDF8) (O14793 267-375): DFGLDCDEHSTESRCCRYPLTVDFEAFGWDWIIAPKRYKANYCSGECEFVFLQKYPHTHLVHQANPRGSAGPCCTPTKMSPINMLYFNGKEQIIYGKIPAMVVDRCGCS
Chain of BMP7 (P18075 293-431): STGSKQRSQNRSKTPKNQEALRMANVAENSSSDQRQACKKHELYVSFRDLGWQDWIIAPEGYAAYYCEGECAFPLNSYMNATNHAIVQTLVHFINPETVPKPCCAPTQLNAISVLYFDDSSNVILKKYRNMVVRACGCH

| Molecule | Kd [9] | koff [9] | kon [9] | also measured |
| --- | --- | --- | --- | --- |
| ACE-083 (FST291-Fc fusion protein) | – | – | – | IC50 of inhibition of activin A signaling through its cognate receptors, CAGA12 dual-luciferase reporter-gene assay in A204 cells (activin A [1]): 0.0392 nM; IC50 of inhibition of activin B signaling through its cognate receptors, CAGA12 dual-luciferase reporter-gene assay in A204 cells (activin B [2]): 0.0492 nM; IC50 of inhibition of GDF11 signaling through its cognate receptors, CAGA12 dual-luciferase reporter-gene assay in A204 cells [3]: 0.0759 nM; IC50 of inhibition of GDF8 signaling through its cognate receptors, CAGA12 dual-luciferase reporter-gene assay in A204 cells (myostatin (GDF8) [4]): 0.676 nM |
| ACE-083 (Fc fusion) | – | – | – | Supplementary Figure S2: IC50 of ACE-083 for inhibition of activin A signalling through its cognate receptors, luciferase reporter-gene assay in A204 cells (representative curve of three experiments) (activin A [5]): 4.63 ng/mL; Supplementary Figure S2: IC50 of ACE-083 for inhibition of activin B signalling through its cognate receptors, luciferase reporter-gene assay in A204 cells (representative curve of three experiments) (activin B [6]): 4.75 ng/mL; Supplementary Figure S2: IC50 of ACE-083 for inhibition of GDF11 signalling through its cognate receptors, luciferase reporter-gene assay in A204 cells (representative curve of three experiments) [7]: 8.04 ng/mL; Supplementary Figure S2: IC50 of ACE-083 for inhibition of GDF8 signalling through its cognate receptors, luciferase reporter-gene assay in A204 cells (representative curve of three experiments) (myostatin (GDF8) [8]): 81.9 ng/mL |
| BMP7 (from UniProt P18075 293-431) (ligand) | – | – | – | Kd (ACE-083 (human)): 0.291 nM; koff (ACE-083 (human)): 0.00196 s⁻¹; kon (ACE-083 (human)): 6.75e+06 M⁻¹ s⁻¹ |
| myostatin (GDF8) (from UniProt O14793 267-375) (ligand) | 0.348 nM | 0.000185 s⁻¹ | 532000 M⁻¹ s⁻¹ | – |
| activin A (ligand) GLECDGKVNICCKKQFFVSFKDIGWNDWIIAPSGYHANYCEGECPSHIAGTSGSSLSFHSTVINHYRMRGHSPFANLKSCCVPTKLRPMSMLYYDDGQNIIKKDIQNMIVEECGCS | 0.0788 nM | 0.000155 s⁻¹ | 1.97e+06 M⁻¹ s⁻¹ | – |
| growth differentiation factor 11 (GDF11) (ligand) NLGLDCDEHSSESRCCRYPLTVDFEAFGWDWIIAPKRYKANYCSGQCEYMFMQKYPHTHLVQQANPRGSAGPCCTPTKMSPINMLYFNDKQQIIYGKIPGMVVDRCGCS | 0.0154 nM | 7.2e-05 s⁻¹ | 4.77e+06 M⁻¹ s⁻¹ | – |
| activin B (ligand) GLECDGRTNLCCRQQFFIDFRLIGWNDWIIAPTGYYGNYCEGSCPAYLAGVPGSASSFHTAVVNQYRMRGLNPGTVNSCCIPTKLSTMSMLYFDDEYNIVKRDVPNMIVEECGCA | 0.0103 nM | 0.000199 s⁻¹ | 1.93e+07 M⁻¹ s⁻¹ | – |
